Data from US11555069B2, “Cognitive function improving agent” (Kao Corporation, priority 2016, dated 2023).

T1: GIP(1-42) (Homo sapiens, UniProt P09681)
T1 sequence (P09681 52-93): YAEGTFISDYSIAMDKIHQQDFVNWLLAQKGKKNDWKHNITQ

T2: GIP(3-42) (Homo sapiens, UniProt P09681)
T2 sequence (P09681 54-93): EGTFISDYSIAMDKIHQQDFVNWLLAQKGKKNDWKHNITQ


Key:
db/db mice [1] = assay: Y-maze (short-term memory) test, Example 1; type: in vivo, mouse; details: db/db mice 30-week-old, i.p. twice a week, 20 days after start (after seven administrations); GIP 5 nmol/kg, anti-GIP antibody 1 mg/kg; FIG. 2
Experimental: (§1) Six-week-old leptin receptor deficient C57BLKS/J male mice (db/db mice, Oriental Yeast Co., Ltd.) were transferred (room temperature: 23° C., humidity: 55±10%, light period: 7:00 to 19:00) and were fed with food and water ad libitum. The food was CE-2 (CLEA Japan, Inc.), and the mice were acclimated for 2 weeks under the above-mentioned environment and were then used for testing.
(§2) Mouse-derived GIP (manufactured by AnaSpec, Inc.) was dissolved in physiological saline at a concentration of 500 nM to give a GIP solution. […]
(§3) The test was performed 10 days before the start of the administration and 20 days after the start of the administration (after seven administrations) to measure the short-term memory and learning ability (working memory). Each mouse was placed at an end of a plastic Y-maze (manufactured by Noldus Information Technology) in which the arms each have a length of 40 cm and a height of 12 cm and form an angle of 120° with each other, and the behavior of the mouse was video-recorded for 10 minutes to measure the order and the number of entries into the arms. The score of short-term memory and learning ability was evaluated by the spontaneous alternation behavior change rate (see the following calculation formula). […]

db/db mice [2] = assay: Novel object recognition (long-term memory) test, Example 1; type: in vivo, mouse; details: db/db mice 30-week-old, i.p. twice a week, 15 days after start (after six administrations); GIP 5 nmol/kg, anti-GIP antibody 1 mg/kg; FIG. 3
Experimental: as §1, §2
The test was performed 5 days before the start of the administration and 15 days after the start of the administration (after six administrations) to measure the long-term memory and learning ability (reference memory). […] On the following day, two identical objects (rubber objects wrapped with blue rubber tape: columns each having 4 cm diameter and 3.5 cm height) were placed in the box (at a position with a space of 10 cm in length and 10 cm in width from the wall), and the behavior of the mouse was video-recorded for 5 minutes to measure the number of recognitions (the number of times the mouse approached each object within 1 cm) (training trial, on the 14th day from the start of the administration). […] The score of long-term memory and learning ability was evaluated by the recognition rate of the novel object in the retention trial (see the following calculation formula). […]

[3] = target: T3, PEGylated N-terminus 13 amino acids of inactive GIP (GIP(3-15)) (Homo sapiens, UniProt P09681); assay: Hybridoma screening/cloning ELISA with immobilized antigen (2); type: binding; details: hybridoma culture supernatant, immobilized PEGylated GIP(3-15)
T3 construct: made in house; host or cells: peptide synthesis (no expression host)
Experimental: (§4) Polyethylene glycol was added to N-terminus 15 amino acids of active GIP (GIP(1-15)) (PEGylation (polyethylene glycolation)), and keyhole limpet hemocyanin (KLH) was then chemically bonded thereto to produce KLH-linked PEGylated GIP (1-15) as an immunogen.

[4] = system: C57BL/6J mice (107-week-old); assay: Novel object recognition (long-term memory) test in aged mice, Example 3; type: in vivo, mouse; details: aged C57BL/6J mice (107-week-old), 0.5 mg/kg i.p. once a week, 5 weeks after start; compared to control group; FIG. 6
Experimental: (§5) Four-week-old C57BL/6J male mice (CLEA Japan, Inc.) were transferred (room temperature: 23° C., humidity: 55±10%, light period: 7:00 to 19:00) and were fed with food (D12450K, Research Diets, Inc.) and water ad libitum for 111 weeks.
(§6) The anti-active GIP antibody produced in Production Example 1 was dissolved in physiological saline at a concentration of 0.05 mg/mL to give an anti-GIP antibody solution.
(§7) Physiological saline (control group) or the anti-GIP antibody solution (0.5 mg/kg body weight) (anti-GIP antibody administration group) was intraperitoneally administered to C57BL/6J mice (107-week-old) once a week (9:00 to 10:00 a.m.), 6 times in total.
The test was performed 5 weeks after the start of the administration to measure the long-term memory and learning ability (reference memory). […] On the following day, two identical objects (rubber objects wrapped with blue rubber tape: columns each having 4 cm diameter and 3.5 cm height) were placed in the box (at a position with a space of 10 cm in length and 10 cm in width from the wall), and the behavior of the mouse was video-recorded for 5 minutes to measure the number of recognitions (the number of times the mouse approached each object within 1 cm) (training trial). […]

[5] = system: C57BL/6J mice (107-week-old); assay: Y-maze (short-term memory) test in aged mice, Example 3; type: in vivo, mouse; details: aged C57BL/6J mice (107-week-old), 0.5 mg/kg i.p. once a week, 6 times; compared to non-administration and control group; FIG. 5
Experimental: as §5, §6, §7
as §3, with “1 week” for “10 days”, “1 week” for “20 days”, “two administrations), 3 weeks after the start (after four administrations), and 5 weeks after the start (after six” for “seven”, “arms.” for “arms. The score of short-term memory and learning ability was evaluated by the spontaneous alternation behavior change rate (see the following calculation formula).”

[6] = target: T4, PEGylated N-terminus 15 amino acids of active GIP (GIP(1-15)) (Homo sapiens, UniProt P09681); assay: Hybridoma screening/cloning ELISA with immobilized antigen (1); type: binding; details: hybridoma culture supernatant, immobilized PEGylated GIP(1-15)
T4 construct: PEGylated N-terminus 15 amino acids of active GIP (GIP(1-15)); made in house; host or cells: peptide synthesis (no expression host)
Experimental: as §4

GIP(1-42) = target: T1, GIP(1-42); assay: Sandwich ELISA, reactivity with active GIP; type: binding; details: biotinylated antibody 1 μg/mL as detection antibody, GIP 8.2 to 2000 pg/mL, FIG. 1
Experimental: (§8) The reactivity between the monoclonal antibody prepared in Production Example 1 and active GIP was confirmed by ELISA. The amino group of the anti-active GIP monoclonal antibody was biotinylated with NH2 group biotinylation kit (manufactured by Dojindo Laboratories). ELISA was performed using the produced biotinylated anti-active GIP monoclonal antibody at 1 μg/mL instead of a detection antibody, GIP detection antibody (biotinylated anti-total GIP monoclonal antibody), included in Human (total) GIP ELISA kit (manufactured by EMD Millipore Corporation). A […] dilution series of GIP(1-42) or GIP(3-42) was prepared in 6 steps (8.2 to 2000 pg/mL) with a 2000 pg/mL solution as the highest concentration. By using an anti-total GIP monoclonal antibody (included in Human GIP (total) ELISA kit manufactured by EMD Millipore Corporation) as a capture antibody, the biotinylated anti-active GIP monoclonal antibody as a detection antibody, and a peroxidase-streptavidin conjugate for detection, sandwich ELISA was conducted to prepare a calibration curve with GIP concentration on the X-axis and 450 nm-590 nm absorbance on the Y-axis (FIG. 1).

GIP(3-42) = target: T2, GIP(3-42); assay: Sandwich ELISA, cross-reactivity with inactive GIP; type: binding; details: biotinylated antibody 1 μg/mL as detection antibody, GIP 8.2 to 2000 pg/mL, FIG. 1
Experimental: as §8

Row | ELISA reaction with antigen (2) for measurement [3] | ELISA reaction with antigen (1) for measurement [6] | Molecule | spontaneous alternation behavior change rate (short-term memory and learning ability) (db/db mice [1]) | novel object recognition rate (long-term memory and learning ability) (db/db mice [2]) | novel object recognition rate (long-term memory and learning ability) [4] | spontaneous alternation behavior change rate (short-term memory and learning ability) [5] | reactivity with GIP(1-42) (450 nm-590 nm absorbance) (GIP(1-42)) | cross-reactivity with GIP(3-42) (450 nm-590 nm absorbance) (GIP(3-42))
1 | – | – | GIP: Mouse-derived GIP (manufactured by AnaSpec, Inc.) dissolved in physiological saline at 500 nM (YAEGTFISDYSIAMDKIRQQDFVNWLLAQRGKKSDWKHNITQ; Gastric inhibitory polypeptide; UniProt P48756 44-85, looked up) | a decrease in the spontaneous alternation behavior change rate (short-term memory and learning ability) was observed | a decrease in the novel object recognition rate (long-term memory and learning ability) was observed | – | – | – | –
2 | negative for the antigen (2) | positive for the antigen (1) | monoclonal antibody prepared in Production Example 1: anti-active GIP monoclonal antibody produced by hybridoma 9B9H5-B9 line; H-chain variable region SEQ ID NO: 2, L-chain variable region SEQ ID NO: … (antibody, listed as Mus musculus, V domains shown) VH: QVQLQQPGAELVKPGASVKLSCKASGYTFTSFWMHWVIQRPGQGLEWIGEMNPSDGRTHFNEKFKTKATLTIDTSSNTAYMELNSLTSEDSAVYYCARRMEDWGQGTLVTVSA VL: DIKMTQSPSSMYASLGERVTITCKASQDINSYLGWFQQKPGKSPKTLIYGANRLVDGVPSRFSGSGSGQDYSLTISSLEYDDMGIYYCLQYDEFPLTFGAGTKLELKR | – | – | an increase in the novel object recognition rate (long-term memory and learning ability) was observed | an increase in the spontaneous alternation behavior change rate (short-term memory and learning ability) was observed | capable of specifically detecting GIP(1-42) | does not show cross-reactivity with GIP(3-42)
